From PMC5302815 come the findings set out here.

The target in the data set is T1, FinR (Pseudomonas aeruginosa PAO1) (UniProt Q9HYK6).
T1 sequence: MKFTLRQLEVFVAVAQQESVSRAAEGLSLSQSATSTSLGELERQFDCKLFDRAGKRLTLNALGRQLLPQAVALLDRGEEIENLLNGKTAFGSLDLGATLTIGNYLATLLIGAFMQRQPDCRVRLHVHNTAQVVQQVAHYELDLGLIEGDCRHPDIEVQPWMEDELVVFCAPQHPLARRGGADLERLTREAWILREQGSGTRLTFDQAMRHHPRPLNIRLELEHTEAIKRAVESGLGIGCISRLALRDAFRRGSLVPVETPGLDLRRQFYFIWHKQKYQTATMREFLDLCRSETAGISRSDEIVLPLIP
Kind of data set: EMSA. Particulars: EMSA: 20 mM Tris-HCl pH 8.0, 50 mM KCl, 4 mM MgCl2, 0.5 mM EDTA, 0.02 mg/ml BSA, 5 mM DTT, 10% glycerol, 200 ng poly(dI-dC), 3 fmol probe in 25 ul, 25 C …. A general note: In EMSA bound probe runs differently from free probe, usually more slowly.

As to “AGACGCTCTCCTGCTGGGCCACGGCGACGAACACCTCGAGCTGGCGGAGGGTGAATTTCATCCAGGCTTCCTCGTCTAGAGCGAAAGGCCCCGCGACATTTTGCCGTTCCGTCGGCGGGGTTGGCTCGGTTATCCTTGCGCCCCGTCCGCGGGAGCGATGGGAGCCCTCGGCGGCCGGCGGCCGACCGATATCGTGTTATCCC (double strand) [EBI62-EBI69 fragment (without FinR site)]”, the binding result is “no binding”.
As to “CGATATCGTGTTATCCCATATCCATATTCTGGATAAGCATTATCCAGACAATTCATTTTGCGGATATTTTGGCAACCGATAAAATGCCGCGCAACTGCGTCACGTCTGCTGCTGTTGGTGTGCGCCCGCGTTTTCCTAGGAGTCTTTGATGAGCAATCTGTACACCGAGCGCGTTCTCAGCGTGCACCACTGGAACGACACCCTGTTCAGCT (double strand) [EBI61-EBI70 fragment (with FinR site)]”, the binding entry is “binds”.
